Test results reported in the RNAGym collection of RNA variant scans (doi:10.7554/elife.80360).

B1: CPEB3 Ribozyme (parent)
chain: GGGGGCCACAGCAGAAGCGUUCACGUCGCGGCCCCUGUCAGAUUCUGGUGAAUCUGCGAAUUCUGCUGU

Variants of: B1
Assay: self-cleavage, relative activity (ratio to wild type); higher = more cleavage; co-transcriptional
U36C U67A showed a self-cleavage of 0.926. Variant U36C U67C has a self-cleavage of 0.981. With U36G A40U the self-cleavage was 0.259. In the case of G37A A52C, the self-cleavage is reported as 0.282. For G37C U69A, the self-cleavage was 0.336. Variant G37C U69C has a self-cleavage of 0.428. U36C C63U gave a self-cleavage of 0.856. U36C C45U showed a self-cleavage of 0.926. U36C G37A gave a self-cleavage of 0.335. For U36G G56C, the self-cleavage was 0.284. U36G G50C showed a self-cleavage of 0.231. U36G G50A showed a self-cleavage of 0.214. G37A C54G gave a self-cleavage of 0.221. G37U A40U gave a self-cleavage of 0.257. For U36G G58U, the self-cleavage was 0.193. For G37A G68C, the self-cleavage was 0.371. In the case of G37A U61G, the self-cleavage is reported as 0.221. In the case of G37A U61C, the self-cleavage is reported as 0.149. In the case of U36G U61G, the self-cleavage is reported as 0.179. Variant U36G U61C has a self-cleavage of 0.139. For U36A U44A, the self-cleavage was 0.177. U36A U44G showed a self-cleavage of 0.21. Variant G37C G47C has a self-cleavage of 0.18. With U36C A52G the self-cleavage was 0.855. With U36G A51C the self-cleavage was 0.25. In the case of U36G A51G, the self-cleavage is reported as 0.179. U36G A51U gave a self-cleavage of 0.117. With G37C U46G the self-cleavage was 0.25. With G37C U46A the self-cleavage was 0.236. Variant U36C G50A has a self-cleavage of 0.948. Variant U36C G50U has a self-cleavage of 0.893. With G37C A60G the self-cleavage was 0.237. In the case of U36A G56A, the self-cleavage is reported as 0.231. Variant G37A G50A has a self-cleavage of 0.304. Variant G37A A42G has a self-cleavage of 0.189. Work on G37C U44A yielded a self-cleavage of 0.27. For G37C U44G, the self-cleavage was 0.211. In the case of G37C G48C, the self-cleavage is reported as 0.226. Variant G37C A51G has a self-cleavage of 0.205. In the case of U36A G58A, the self-cleavage is reported as 0.205. For U36C G65U, the self-cleavage was 0.485. Variant G37A A60C has a self-cleavage of 0.274. G37A A60U showed a self-cleavage of 0.193. G37A G58A gave a self-cleavage of 0.289. Work on G37A G58U yielded a self-cleavage of 0.247. Variant U36G U69C has a self-cleavage of 0.493. U36G U69G gave a self-cleavage of 0.45. Variant U36G U53G has a self-cleavage of 0.214. With U36G U53A the self-cleavage was 0.273. U36G G47U showed a self-cleavage of 0.148. Work on U36C G58A yielded a self-cleavage of 0.731. Variant U36C G58C has a self-cleavage of 0.834. U36A G37A gave a self-cleavage of 0.213. In the case of U36A G37C, the self-cleavage is reported as 0.198. Work on U36A G37U yielded a self-cleavage of 0.259. Variant G37A C39G has a self-cleavage of 0.277. Work on U36C U55A yielded a self-cleavage of 0.888. In the case of U36C U55C, the self-cleavage is reported as 0.74. Work on U36C U55G yielded a self-cleavage of 0.454. G37A U55G gave a self-cleavage of 0.234. Variant U36G U38A has a self-cleavage of 0.214. Work on U36G C63A yielded a self-cleavage of 0.147. G37C U62C showed a self-cleavage of 0.276. With U36A U49C the self-cleavage was 0.22. For U36A U64C, the self-cleavage was 0.298. G37C U53G gave a self-cleavage of 0.129. In the case of G37C U53C, the self-cleavage is reported as 0.284. G37C C45G gave a self-cleavage of 0.346. In the case of U36A C66G, the self-cleavage is reported as 0.257. Variant G37A U64C has a self-cleavage of 0.312. G37C C54G gave a self-cleavage of 0.164. Work on G37A A51G yielded a self-cleavage of 0.332. In the case of G37A A51C, the self-cleavage is reported as 0.334. In the case of U36A U46C, the self-cleavage is reported as 0.186. Work on U36C U46G yielded a self-cleavage of 0.93. U36A C54G showed a self-cleavage of 0.215. U36A C54A showed a self-cleavage of 0.2. G37C A59U showed a self-cleavage of 0.242. Work on U36A U62C yielded a self-cleavage of 0.314. Variant G37A G56U has a self-cleavage of 0.257. Work on G37A G56A yielded a self-cleavage of 0.249. Work on U36A U69G yielded a self-cleavage of 0.347. U36C A51G gave a self-cleavage of 0.914. With G37C G56C the self-cleavage was 0.223. In the case of U36G A60C, the self-cleavage is reported as 0.206. U36G A60G showed a self-cleavage of 0.209. For G37A U49A, the self-cleavage was 0.285. In the case of G37A U49C, the self-cleavage is reported as 0.303. In the case of G37A G41U, the self-cleavage is reported as 0.219. Variant U36C C39A has a self-cleavage of 0.474. U36C C39U showed a self-cleavage of 0.732. For G37A C63G, the self-cleavage was 0.258. Work on U36G U62A yielded a self-cleavage of 0.131. In the case of U36G U62G, the self-cleavage is reported as 0.238. For G37A U44A, the self-cleavage was 0.277. U36G G68U showed a self-cleavage of 0.338. With U36G G68A the self-cleavage was 0.214. U36G G68C gave a self-cleavage of 0.436. With G37A U53A the self-cleavage was 0.303. For G37A U53G, the self-cleavage was 0.222. Variant U36A G68U has a self-cleavage of 0.248. With G37A A59U the self-cleavage was 0.215. With U36G U67G the self-cleavage was 0.252. With G37C U64A the self-cleavage was 0.267. G37C U64C gave a self-cleavage of 0.162. For U36G G48U, the self-cleavage was 0.196. Variant U36G C45U has a self-cleavage of 0.232. Work on U36C G68U yielded a self-cleavage of 1.01. U36A U43C gave a self-cleavage of 0.186. For G37A U69G, the self-cleavage was 0.538. Variant G37A U69A has a self-cleavage of 0.422. For G37A U67G, the self-cleavage was 0.334. With G37A U67C the self-cleavage was 0.321. G37C U43G gave a self-cleavage of 0.202. Variant G37C U49A has a self-cleavage of 0.307. U36A G41A showed a self-cleavage of 0.146. U36C U38A showed a self-cleavage of 0.376. Work on U36C U38C yielded a self-cleavage of 0.631. Variant U36C C57U has a self-cleavage of 0.277. G37A C66A gave a self-cleavage of 0.227. G37A C66G gave a self-cleavage of 0.265. Work on G37C G65C yielded a self-cleavage of 0.255. U36A G65A gave a self-cleavage of 0.278. U36A G50U showed a self-cleavage of 0.232. U36G C54A gave a self-cleavage of 0.186. In the case of U36G C54G, the self-cleavage is reported as 0.137. Work on G37C A42G yielded a self-cleavage of 0.213. With G37C A42C the self-cleavage was 0.237. G37A G48A showed a self-cleavage of 0.357. Work on G37A G48C yielded a self-cleavage of 0.265. G37C G41A showed a self-cleavage of 0.245. Work on G37C G41C yielded a self-cleavage of 0.126. U36C U61G showed a self-cleavage of 0.601. With U36G A42U the self-cleavage was 0.256. In the case of U36G A42C, the self-cleavage is reported as 0.221. In the case of G37A U62G, the self-cleavage is reported as 0.318. In the case of U36A U53C, the self-cleavage is reported as 0.181. With U36A C45U the self-cleavage was 0.325. U36C gave a self-cleavage of 0.939. For U36G, the self-cleavage was 0.239. In the case of U36C U69A, the self-cleavage is reported as 0.996. U36G U64A gave a self-cleavage of 0.254. With U36G U49A the self-cleavage was 0.237. U36G U49G gave a self-cleavage of 0.197. With G37A C45A the self-cleavage was 0.23. Work on U36A U61G yielded a self-cleavage of 0.147. With U36A U61A the self-cleavage was 0.137. Work on G37C U67G yielded a self-cleavage of 0.188. For G37C U67A, the self-cleavage was 0.274. For G37C U38G, the self-cleavage was 0.25. Variant U36C U64A has a self-cleavage of 0.713. For U36G U44C, the self-cleavage was 0.118. Work on G37C A52U yielded a self-cleavage of 0.254. For U36A C63A, the self-cleavage was 0.245. U36C U43G showed a self-cleavage of 0.662. With U36G U46G the self-cleavage was 0.181. For U36G U46A, the self-cleavage was 0.349. In the case of G37U A51C, the self-cleavage is reported as 0.234. In the case of G37U A51G, the self-cleavage is reported as 0.266. U36G U55G showed a self-cleavage of 0.245. U36G U55C gave a self-cleavage of 0.177. Work on U36G G65U yielded a self-cleavage of 0.0921. U36G C57U showed a self-cleavage of 0.184. U36G C57A showed a self-cleavage of 0.236. U36C U62C showed a self-cleavage of 0.528. For U36C C66U, the self-cleavage was 0.891. U36A G48A gave a self-cleavage of 0.269.
